Source: publication doi:10.1101/2025.06.15.659787

Molecular target: [2Fe-2S]-bound Mtb-SufU (sulfide transfer protein SufU, Rv1465, of Mycobacterium tuberculosis H37Rv) (Mycobacterium tuberculosis H37Rv) (UniProt O53156)
Experiment: SEC-MALS

**Q.** How did the stoichiometry N turn out when “[2Fe-2S]-bound Mtb-SufU (sulfide transfer protein SufU, Rv1465, of Mycobacterium tuberculosis H37Rv) (from UniProt O53156 1-162) (natural protein)” was run?
**A.** The stoichiometry N was 4.
